The experiment has as its target human tumor necrosis factor-α (TNFα) (human, UniProt P01375 77-233). Briefly: cell-based or functional assay.

Sequence of human tumor necrosis factor-α (TNFα) (P01375 77-233): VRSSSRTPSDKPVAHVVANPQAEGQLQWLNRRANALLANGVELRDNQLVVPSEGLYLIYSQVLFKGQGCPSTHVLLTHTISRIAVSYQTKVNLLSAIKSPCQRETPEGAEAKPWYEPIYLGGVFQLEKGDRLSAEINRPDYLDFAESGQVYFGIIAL

B1: chimeric mouse/human IgG1 anti-platelet mAb (7E3) (antibody, INN chains, looked up, V domains shown)
VH: EVQLQQSGTVLARPGASVKMSCEASGYTFTNYWMHWVKQRPGQGLEWIGAIYPGNSDTSYIQKFKGKAKLTAVTSTTSVYMELSSLTNEDSAVYYCTLYDGYYVFAYWGQGTLVTVSA
VL: EIVLTQSPVTLSVTPGDSVSLSCRASRDISNNLHWFQQTSHESPRLLIKYASQSMSGIPSRFSGSGSGTDFTLSINSVETEDFGMYFCQQTNSWPYTFGGGTKLEIK
modifications: IgG1
As for B1, the IL-6 secreted by FS-4 fibroblasts (ng/ml), rhTNF 0.3 ng/ml, antibody 4 µg/ml (no antibody: 1.36) was 1.6 ng/mL; the IL-6 secreted by FS-4 fibroblasts (ng/ml), rhTNF 1.5 ng/ml, antibody 4 µg/ml (no antibody: 2.00) was found to be 1.96 ng/mL; the IL-6 secreted by FS-4 fibroblasts (ng/ml), rhTNF 7.5 ng/ml, antibody 4 µg/ml (no antibody: 2.56) turned out to be 2.16 ng/mL.

B2: p55-sf2 TNF receptor/IgG1 fusion protein (Fc fusion)
chain: QVCPQGKYIHPQNNSICCTKCHKGTYLYNDCPGPGQDTDCRECESGSFTASENHLRHCLSCSKCRKEMGQVEISSCTVDRDTVCGCRKNQYRHYWSENLFQCFNCSLCLNGTVHLSCQEKQNTVCTCHAGFFLRENECVSCSNCKKSLECTKLCLPQIGTLVTVSS
As for B2, the “IC50: concentration of fusion protein required to inhibit 2 ng/ml (39.2 pM) TNFα by 50%, WEHI 164 cytotoxicity assay” value was 70 pM.
